Non-standard residues stand in square brackets, D forms with d. No end group written: not given here. *: point of attachment. Biotin = O=C1N[C@H]2[C@H](CS[C@H]2CCCCC(=O)*)N1; pY = N[C@@H](Cc1ccc(OP(=O)(O)O)cc1)C(=O)O

Consider one molecule from paper PMC4909201 (2016).

This test deals with thrombin (Homo sapiens, UniProt P00734). The experiment in a line: SPR. For orientation: Surface plasmon resonance follows binding to a sensor surface in real time, without labels.

B1: GpIbα269-286ppp (peptide)
chain: Biotin-DEGDTDL[pY]D[pY][pY]PEEDTEG
Molecule B1 displayed a Kd of 229 nM.

Usually Kd stands for a measure of binding affinity in units of concentration. Read a low Kd as tighter binding.
